According to PMC11574045, “A cofactor-induced repressive type of transcription factor condensation can be induced by synthetic peptides to suppress tumorigenesis” (The EMBO Journal, 2024):

B1: ELF3 (protein, UniProt P78545 1-371, looked up)
ETS-related transcription …: MAATCEISNIFSNYFSAMYSSEDSTLASVPPAATFGADDLVLTLSNPQMSLEGTEKASWLGEQPQFWSKTQVLDWISYQVEKNKYDASAIDFSRCDMDGATLCNCALEELRLVFGPLGDQLHAQLRDLTSSSSDELSWIIELLEKDGMAFQEALDPGPFDQGSPFAQELLDDGQQASPYHPGSCGAGAPSPGSSDVSTAGTGASRSSHSSDSGGSDVDLDPTDGKLFPSDGFRDCKKGDPKHGKRKRGRPRKLSKEYWDCLEGKKSKHAPRGTHLWEFIRDILIHPELNEGLMKWENRHEGVFKFLRSEAVAQLWGQKKKNSNMTYEKLSRAMRYYYKREILERVDGRRLVYKFGKNSSGWKEEEVLQSRN
B2: EMX1 (protein, UniProt Q04741 1-290, looked up)
Homeobox protein EMX1: MCLAGCTPRKAAAPGRGALPRARLPRTAPAAATMFQPAAKRGFTIESLVAKDGGTGGGTGGGGAGSHLLAAAASEEPLRPTALNYPHPSAAEAAFVSGFPAAAAAGAGRSLYGGPELVFPEAMNHPALTVHPAHQLGASPLQPPHSFFGAQHRDPLHFYPWVLRNRFFGHRFQASDVPQDGLLLHGPFARKPKRIRTAFSPSQLLRLERAFEKNHYVVGAERKQLAGSLSLSETQVKVWFQNRRTKYKRQKLEEEGPESEQKKKGSHHINRWRIATKQANGEDIDVTSND
B3: AEBP2 (protein, UniProt Q6ZN18 2-517, looked up)
Zinc finger protein AEBP2: AAAITDMADLEELSRLSPLPPGSPGSAARGRAEPPEEEEEEEEEEEEAEAEAVAALLLNGGSGGGGGGGGGGVGGGEAETMSEPSPESASQAGEDEDEEEDDEEEEDESSSSGGGEEESSAESLVGSSGGSSSDETRSLSPGAASSSSGDGDGKEGLEEPKGPRGSQGGGGGGSSSSSVVSSGGDEGYGTGGGGSSATSGGRRGSLEMSSDGEPLSRMDSEDSISSTIMDVDSTISSGRSTPAMMNGQGSTTSSSKNIAYNCCWDQCQACFNSSPDLADHIRSIHVDGQRGGVFVCLWKGCKVYNTPSTSQSWLQRHMLTHSGDKPFKCVVGGCNASFASQGGLARHVPTHFSQQNSSKVSSQPKAKEESPSKAGMNKRRKLKNKRRRSLPRPHDFFDAQTLDAIRHRAICFNLSAHIESLGKGHSVVFHSTVIAKRKEDSGKIKLLLHWMPEDILPDVWVNESERHQLKTKVVHLSKLPKDTALLLDPNIYRTMPQKRLKRTLIRKVFNLYLSKQ
B4: ADNP (protein, UniProt Q9H2P0 1-1102, looked up)
Activity-dependent …: MFQLPVNNLGSLRKARKTVKKILSDIGLEYCKEHIEDFKQFEPNDFYLKNTTWEDVGLWDPSLTKNQDYRTKPFCCSACPFSSKFFSAYKSHFRNVHSEDFENRILLNCPYCTFNADKKTLETHIKIFHAPNASAPSSSLSTFKDKNKNDGLKPKQADSVEQAVYYCKKCTYRDPLYEIVRKHIYREHFQHVAAPYIAKAGEKSLNGAVPLGSNAREESSIHCKRCLFMPKSYEALVQHVIEDHERIGYQVTAMIGHTNVVVPRSKPLMLIAPKPQDKKSMGLPPRIGSLASGNVRSLPSQQMVNRLSIPKPNLNSTGVNMMSSVHLQQNNYGVKSVGQGYSVGQSMRLGLGGNAPVSIPQQSQSVKQLLPSGNGRSYGLGSEQRSQAPARYSLQSANASSLSSGQLKSPSLSQSQASRVLGQSSSKPAAAATGPPPGNTSSTQKWKICTICNELFPENVYSVHFEKEHKAEKVPAVANYIMKIHNFTSKCLYCNRYLPTDTLLNHMLIHGLSCPYCRSTFNDVEKMAAHMRMVHIDEEMGPKTDSTLSFDLTLQQGSHTNIHLLVTTYNLRDAPAESVAYHAQNNPPVPPKPQPKVQEKADIPVKSSPQAAVPYKKDVGKTLCPLCFSILKGPISDALAHHLRERHQVIQTVHPVEKKLTYKCIHCLGVYTSNMTASTITLHLVHCRGVGKTQNGQDKTNAPSRLNQSPSLAPVKRTYEQMEFPLLKKRKLDDDSDSPSFFEEKPEEPVVLALDPKGHEDDSYEARKSFLTKYFNKQPYPTRREIEKLAASLWLWKSDIASHFSNKRKKCVRDCEKYKPGVLLGFNMKELNKVKHEMDFDAEWLFENHDEKDSRVNASKTADKKLNLGKEDDSSSDSFENLEEESNESGSPFDPVFEVEPKISNDNPEEHVLKVIPEDASESEEKLDQKEDGSKYETIHLTEEPTKLMHNASDSEVDQDDVVEWKDGASPSESGPGSQQVSDFEDNTCEMKPGTWSDESSQSEDARSSKPAAKKKATMQGDREQLKWKNSSYGKVEGFWSKDQSQWKNASENDERLSNPQIEWQNSTIDSEDGEQFDNMTDGVAEPMHGSLAGVKLSSQQA
B5: EID1 (protein, UniProt Q9Y6B2 1-187, looked up)
EP300-interacting inhibitor …: MSEMAELSELYEESSDLQMDVMPGEGDLPQMEVGSGSRELSLRPSRSGAQQLEEEGPMEEEEAQPMAAPEGKRSLANGPNAGEQPGQVAGADFESEDEGEEFDDWEDDYDYPEEEQLSGAGYRVSAALEEADKMFLRTREPALDGGFQMHYEKTPFDQLAFIEELFSLMVVNRLTEELGCDEIIDRE
B6: AES (protein, UniProt Q08117 1-197, looked up)
TLE family member 5: MMFPQSRHSGSSHLPQQLKFTTSDSCDRIKDEFQLLQAQYHSLKLECDKLASEKSEMQRHYVMYYEMSYGLNIEMHKQAEIVKRLNGICAQVLPYLSQEHQQQVLGAIERAKQVTAPELNSIIRQQLQAHQLSQLQALALPLTPLPVGLQPPSLPAVSAGTGLLSLSALGSQAHLSKEDKNGHDGDTHQEDDGEKSD
B7: ENY2 (protein, UniProt Q9NPA8 1-101, looked up)
Transcription and mRNA export …: MVVSKMNKDAQMRAAINQKLIETGERERLKELLRAKLIECGWKDQLKAHCKEVIKEKGLEHVTVDDLVAEITPKGRALVPDSVKKELLQRIRTFLAQHASL
B8: EN2 (protein, UniProt P19622 1-333, looked up)
Homeobox protein engrailed-2: MEENDPKPGEAAAAVEGQRQPESSPGGGSGGGGGSSPGEADTGRRRALMLPAVLQAPGNHQHPHRITNFFIDNILRPEFGRRKDAGTCCAGAGGGRGGGAGGEGGASGAEGGGGAGGSEQLLGSGSREPRQNPPCAPGAGGPLPAAGSDSPGDGEGGSKTLSLHGGAKKGGDPGGPLDGSLKARGLGGGDLSVSSDSDSSQAGANLGAQPMLWPAWVYCTRYSDRPSSGPRSRKPKKKNPNKEDKRPRTAFTAEQLQRLKAEFQTNRYLTEQRRQSLAQELSLNESQIKIWFQNKRAKIKKATGNKNTLAVHLMAQGLYNHSTTAKEGKSDSE
B9: EDF1 (protein, UniProt O60869 2-148, looked up)
Endothelial …: AESDWDTVTVLRKKGPTAAQAKSKQAILAAQRRGEDVETSKKWAAGQNKQHSITKNTAKLDRETEELHHDRVTLEVGKVIQQGRQSKGLTQKDLATKINEKPQVIADYESGRAIPNNQVLGKIERAIGLKLRGKDIGKPIEKGPRAK
B10: ELK1 (protein, UniProt P19419 1-428, looked up)
ETS domain-containing protein …: MDPSVTLWQFLLQLLREQGNGHIISWTSRDGGEFKLVDAEEVARLWGLRKNKTNMNYDKLSRALRYYYDKNIIRKVSGQKFVYKFVSYPEVAGCSTEDCPPQPEVSVTSTMPNVAPAAIHAAPGDTVSGKPGTPKGAGMAGPGGLARSSRNEYMRSGLYSTFTIQSLQPQPPPHPRPAVVLPSAAPAGAAAPPSGSRSTSPSPLEACLEAEEAGLPLQVILTPPEAPNLKSEELNVEPGLGRALPPEVKVEGPKEELEVAGERGFVPETTKAEPEVPPQEGVPARLPAVVMDTAGQAGGHAASSPEISQPQKGRKPRDLELPLSPSLLGGPGPERTPGSGSGSGLQAPGPALTPSLLPTHTLTPVLLTPSSLPPSIHFWSTLSPIAPRSPAKLSFQFPSSGSAQVHIPSISVDGLSTPVVLSPGPQKP

Tested on: HEK293FT cells transfected with TF library
Experiment: Screening of TF condensates based on fluorescent puncta
Assay type: cell-based
Settings: Figure 1B numerical data; TF library screen, one value per transcriptional factor
Procedure: TF plasmids were automatically added to black-walled 384-well plates at 80 ng per well to reach a final concentration of 1.6 μg/ml. Polyethylenimine (PEI, Sigma) was then added to the plasmid-loaded plates at 240 ng per well (4.8 μg/ml). Subsequently, HEK293FT cells were seeded into the plate at 2000 cells per well. After 60 h, cells were cultured in medium with or without glucose for 12 h, and then fixed with 4% paraformaldehyde (PFA) at room temperature for 30 min. After three washes with PBS, fixed cells were permeabilized with 0.05% Triton X-100 for 15 min. Thereafter, cells were blocked with 5% BSA for 1 h, and then incubated overnight with anti-Flag (Sigma F3165, 1:200) and anti-GAL4 (Abbkine ABP57232, 1:200) primary antibodies at 4 °C. The cells were then gently washed with PBS, followed by being incubated with Alexa Fluor Plus 488 goat anti-mouse IgG secondary antibody (Thermo A32723, 1:400) or Alexa Fluor Plus 488 goat anti-rabbit IgG secondary antibody (Thermo A32731, 1:400) for 1 h. The plates were kept at 4 °C in the dark before being analyzed using an Opera System (Perkin Elmer). Fifty random fields per well were scanned and analyzed using the Columbus Plus Image Data Storage and Analysis System (Perkin Elmer).

Molecule	Z score of condensed fraction
B1	-0.7241
B2	-0.9497
B3	0.1647
B4	-0.6304
B5	1.007
B6	-0.7544
B7	-0.6608
B8	2.005
B9	-0.3636
B10	-0.5027
